The target of series [1] is T1, Cre recombinase monomer with Q311R mutation.
T1 chain: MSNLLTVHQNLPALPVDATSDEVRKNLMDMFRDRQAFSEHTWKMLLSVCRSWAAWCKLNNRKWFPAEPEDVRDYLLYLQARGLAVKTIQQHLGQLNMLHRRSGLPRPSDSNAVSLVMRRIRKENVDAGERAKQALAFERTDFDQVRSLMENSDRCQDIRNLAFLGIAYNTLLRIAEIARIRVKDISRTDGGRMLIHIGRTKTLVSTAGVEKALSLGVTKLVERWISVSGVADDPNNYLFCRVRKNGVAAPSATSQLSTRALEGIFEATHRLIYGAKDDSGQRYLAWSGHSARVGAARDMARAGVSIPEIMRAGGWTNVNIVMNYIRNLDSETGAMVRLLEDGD

The target of series [2] is T2, Cre recombinase monomer with Y324T mutation.
T2 chain: T1 chain with R311Q, Y324T

Series [3] has as its target T3, Cre recombinase monomer with W315M mutation.
T3 chain: T1 chain with R311Q, W315M

For series [4], the target named is T4, Cre recombinase monomer with Y324F mutation.
T4 chain: T1 chain with R311Q, Y324F

Series [5] has as its target T5, Cre recombinase monomer with W315T mutation.
T5 chain: T1 chain with R311Q, W315T

Series [6] addresses T6, Cre recombinase monomer with W315I mutation.
T6 chain: T1 chain with R311Q, W315I

Series [7] has as its target T7, Cre recombinase monomer with Y324L mutation.
T7 chain: T1 chain with R311Q, Y324L

For series [8], the target named is T8, Cre recombinase monomer with Y324V mutation.
T8 chain: T1 chain with R311Q, Y324V

Series [9] has as its target T9, Cre recombinase monomer with Y324M mutation.
T9 chain: T1 chain with R311Q, Y324M

Series [10] has as its target T10, Cre recombinase monomer with E176M mutation.
T10 chain: T1 chain with E176M, R311Q

In series [11] the target is T11, Cre recombinase monomer with E176H mutation.
T11 chain: T1 chain with E176H, R311Q

Changes are numbered by the printed parent chain. Numbers in names are those of the source.

B1: Cre recombinase monomer with K201L mutation (protein)
chain: T1 chain with K201L, R311Q
Consider B1, for which the “Median dimer activity (recombination on loxP)” value (“Median dimer activity” below) in [1] is 92%; in series [2], 25%.

B2: Cre recombinase monomer with R173P mutation (protein)
chain: T1 chain with R173P, R311Q
Turning to B2, the “Median dimer activity” value in series [1] came out at 94%; in [2], 47%.

B3: Cre recombinase monomer with K201V mutation (protein)
chain: T1 chain with K201V, R311Q
For the protein B3, the “Median dimer activity” value in [3] was determined as 64%; in series [1] it was 84%; in [4], 48%.

B4: Cre recombinase monomer with W315L mutation (protein)
chain: T1 chain with R311Q, W315L
Consider B4, for which, in series [5], the “Median dimer activity” value is given as 50%.

B5: Cre recombinase monomer with K201W mutation (protein)
chain: T1 chain with K201W, R311Q
On to B5, for which the “Median dimer activity” value in series [3] was found to be 49%; in [1], 95%; in [2], 68%.

B6: Cre recombinase monomer with R292M mutation (protein)
chain: T1 chain with R292M, R311Q
Take B6: the “Median dimer activity” value in [1] was 96%; in series [6] it was 42%.

B7: Cre recombinase monomer with W315M mutation (protein)
chain: T1 chain with R311Q, W315M
With B7, the “Median dimer activity” value in series [7] is given as 71%.

B8: Cre recombinase monomer with K201Y mutation (protein)
chain: T1 chain with K201Y, R311Q
With B8, the “Median dimer activity” value in [1] is 90%; in [8], 26%.

B9: Cre recombinase monomer with R292Y mutation (protein)
chain: T1 chain with R292Y, R311Q
In the case of B9, the “Median dimer activity” value in series [1] is recorded as 96%; in series [9] it was 90%.

B10: Cre recombinase monomer with W315Q mutation (protein)
chain: T1 chain with R311Q, W315Q
Take B10: the “Median dimer activity” value in series [8] was 97%.

B11: Cre recombinase monomer with W315G mutation (protein)
chain: T1 chain with R311Q, W315G
Consider B11, for which the figures for the “Median dimer activity” value in series [9] and in series [8] were 35% and 37%, respectively.

B12: Cre recombinase monomer with R173Q mutation (protein)
chain: T1 chain with R173Q, R311Q
Regarding B12, the “Median dimer activity” value in [1] was 92%; in series [10], 32%.

B13: Cre recombinase monomer with H289K mutation (protein)
chain: T1 chain with H289K, R311Q
As to B13, the “Median dimer activity” value is reported as 74% in series [3] and 95% in [1].

B14: Cre recombinase monomer with R173C mutation (protein)
chain: T1 chain with R173C, R311Q
On to B14, for which the “Median dimer activity” value is on record as 91% in series [1], 65% in series [11] and 27% in [10].

The values are drawn from patent publication US20230183713A1, “SITE-SPECIFIC RECOMBINASES FOR EFFICIENT AND SPECIFIC GENOME EDITING” (TECHNISCHE UNIVERSITÄt DRESDEN, published 2023).
